Our source for the stoichiometry N values is paper PMC5951680.

This experiment has as its target zebrafish TRPC4 (TRPC4DR) (Danio rerio (zebrafish)). Put plainly: cryo-EM structure; TRPC4DR in amphipols A8-35, unliganded (apo), closed state; buffer C (PBS pH 7.4, 1 mM TCEP); 0.25 mg/ml on the grid; C4 symmetry imposed; 3.6 Å.

Substance “zebrafish TRPC4 (TRPC4DR) (natural protein)” came in with a stoichiometry N of 4.

For orientation: stoichiometry N means the number of molecules, sites or subunits per partner or assembly.
